Target: GAL4(1-147)-FMR1, FMR1 fused to the DNA binding domain of the yeast transcription factor GAL4 (plasmid … (yeast; human, UniProt P04386)
Assay: yeast two-hybrid, HIS3 and LacZ reporters in HF7C

binding result: no binding
B1: GAL4 activation domain alone (empty vector pGAD424) (other)
chain: ANFNQSGNIADSSLSFTFTNSSNGPNLITTQTNSQALSQPIASSNVHDNFMNNEITASKIDDGNNSKPLSPGWTDQTAYNAFGITTGMFNTTTMDDVYNYLFDDEDTPPNPKKE

Source: patent US5876949, “Antibodies specific for fragile X related proteins and method of using the same” (The Trustees of the University of Pennsylvania, dated 1999)
